Experimental data as given in paper PMC11229372, “New Drosophila promoter-associated architectural protein Mzfp1 interacts with CP190 and is required for housekeeping gene expression and insulator activity”.

Key:
[1] = target: T1, MBP-Mzfp1 full-length (Drosophila melanogaster, UniProt Q1LZ24 1-586); assay: EMSA; 0.1 mM ZnSO4, 5 mM MgCl2, poly(dI-dC); PBS pH 8.0, 5 mM MgCl2, 0.1 mM ZnSO4, 1 mM DTT, 0.1% NP-40, 10% glycerol, poly(dI-dC), room temperature, 30 min; 5% native PAGE in 0.5x TBE; conditions: protein: recombinant; tags: N-terminal MBP; label: Cy5; blunt
T1 sequence: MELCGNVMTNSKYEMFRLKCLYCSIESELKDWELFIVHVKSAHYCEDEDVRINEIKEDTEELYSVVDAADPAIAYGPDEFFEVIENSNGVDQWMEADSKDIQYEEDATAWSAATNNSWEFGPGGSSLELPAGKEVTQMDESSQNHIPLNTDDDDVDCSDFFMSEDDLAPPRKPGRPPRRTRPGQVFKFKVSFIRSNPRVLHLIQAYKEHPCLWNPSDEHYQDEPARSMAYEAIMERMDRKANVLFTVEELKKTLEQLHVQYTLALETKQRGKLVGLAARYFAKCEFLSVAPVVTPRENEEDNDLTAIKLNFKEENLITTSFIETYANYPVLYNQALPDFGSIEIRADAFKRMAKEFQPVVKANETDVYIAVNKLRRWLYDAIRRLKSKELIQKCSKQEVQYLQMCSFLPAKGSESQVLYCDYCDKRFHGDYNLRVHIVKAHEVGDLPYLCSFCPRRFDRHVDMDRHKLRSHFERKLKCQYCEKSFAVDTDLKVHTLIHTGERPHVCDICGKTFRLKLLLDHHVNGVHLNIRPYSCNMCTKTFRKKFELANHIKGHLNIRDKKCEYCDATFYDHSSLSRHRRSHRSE

[2] = target: T2, MBP-Mzfp1 MADF1-MADF2 (Drosophila melanogaster, UniProt Q1LZ24 100-434); assay: EMSA; no specific binding; 0.1 mM ZnSO4, poly(dI-dC); PBS pH 8.0, 5 mM MgCl2, 0.1 mM ZnSO4, 1 mM DTT, 0.1% NP-40, 10% glycerol, poly(dI-dC), room temperature, 30 min; 5% native PAGE in 0.5x TBE; conditions: protein: recombinant; tags: MBP; label: Cy5; blunt
T2 sequence: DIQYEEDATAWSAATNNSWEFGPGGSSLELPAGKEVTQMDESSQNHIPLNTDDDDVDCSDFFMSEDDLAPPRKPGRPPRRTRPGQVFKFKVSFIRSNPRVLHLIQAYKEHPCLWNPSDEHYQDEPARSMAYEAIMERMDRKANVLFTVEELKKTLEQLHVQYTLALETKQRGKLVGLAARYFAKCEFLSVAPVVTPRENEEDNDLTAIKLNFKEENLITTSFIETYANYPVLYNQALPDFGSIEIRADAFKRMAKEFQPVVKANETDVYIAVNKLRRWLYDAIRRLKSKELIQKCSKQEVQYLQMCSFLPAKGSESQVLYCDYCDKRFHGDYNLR

B1: Mzfp1x4 (dsDNA)
DNA 1: GAATTCTAAGCTCTTTGTCGATATCTTGACACACCTATATGATTACTAAGCTCTTTGTCGATATCTTGACACACCTATATGAATTCTAAGCTCTTTGTCGATATCTTGACACACCTATATGATTACTAAGCTCTTTGTCGATATCTTGACACACCTATATGAATTCCTGCAG
DNA 2: CTGCAGGAATTCATATAGGTGTGTCAAGATATCGACAAAGAGCTTAGTAATCATATAGGTGTGTCAAGATATCGACAAAGAGCTTAGAATTCATATAGGTGTGTCAAGATATCGACAAAGAGCTTAGTAATCATATAGGTGTGTCAAGATATCGACAAAGAGCTTAGAATTC
binding result [1]: binds | binding result [2]: no binding
